Reference: article PMC6618080

Biological target: Hepatitis B e antigen (HBeAg), purified (hepatitis B virus)
Assay: SEC-MALS

Hepatitis B e antigen (HBeAg), purified (natural protein)
stoichiometry N: 2
